Laboratory results taken from paper PMC11211510, “Sequence-specific dynamic DNA bending explains mitochondrial TFAM’s dual role in DNA packaging and transcription initiation”.

T1: TFAM (UniProt Q00059 43-245)
T1 sequence: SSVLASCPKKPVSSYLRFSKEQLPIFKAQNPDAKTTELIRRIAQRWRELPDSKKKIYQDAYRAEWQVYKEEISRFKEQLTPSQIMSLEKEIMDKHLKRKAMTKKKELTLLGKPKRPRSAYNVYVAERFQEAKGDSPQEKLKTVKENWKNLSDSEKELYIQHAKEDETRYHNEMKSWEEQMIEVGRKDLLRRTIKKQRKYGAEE

T2: TFAM-ΔC26 (C-tail deletion) (UniProt Q00059 43-220)
T2 sequence: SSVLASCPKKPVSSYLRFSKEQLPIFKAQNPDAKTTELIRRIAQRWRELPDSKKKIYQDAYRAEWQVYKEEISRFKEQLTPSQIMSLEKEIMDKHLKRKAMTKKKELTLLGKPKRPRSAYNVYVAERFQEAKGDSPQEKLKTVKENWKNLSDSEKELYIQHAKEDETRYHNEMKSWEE


Assays:
TFAM [1] = target: T1, TFAM; assay: smFRET; bending equilibrium K(F/P) 24.6 ± 7.6; 50 mM Tris acetate pH 7.5, 100 mM Na glutamate, 50 mM NaCl, 10 mM Mg acetate, 0.5 mM TCEP, 0.01% Tween 20, 0.1 mg/ml BSA, 25 °C; 5 nM DNA, 0-75 nM TFAM; conditions: protein: recombinant; tags: N-terminal 6xHis, TEV-cleaved; label: Atto565 at 5' non-template, Atto647N at 5' template; blunt
TFAM [2] = target: T1, TFAM; assay: smFRET; bending equilibrium K(F/P) 1.70 ± 0.74; 50 mM Tris acetate pH 7.5, 100 mM Na glutamate, 50 mM NaCl, 10 mM Mg acetate, 0.5 mM TCEP, 0.01% Tween 20, 0.1 mg/ml BSA, 25 °C; 5 nM DNA, 0-75 nM TFAM; conditions: protein: recombinant; tags: N-terminal 6xHis, TEV-cleaved; label: Atto565 at 5' non-template, Atto647N at 5' template; blunt
[3] = target: T2, TFAM-ΔC26 (C-tail deletion); assay: fluorescence anisotropy; 10 mM Mg acetate; 50 mM Tris acetate pH 7.5, 100 mM Na glutamate, 50 mM NaCl, 10 mM Mg acetate, 0.5 mM TCEP, 0.01% Tween 20, 0.1 mg/ml BSA, 25 °C; 5 nM DNA, 0-75 nM TFAM; conditions: protein: recombinant; tags: SUMO fusion, cleaved; label: fluorescein (FITC) at 3' end of template strand; blunt
TFAM [4] = target: T1, TFAM; assay: fluorescence anisotropy; 10 mM Mg acetate; apparent Kd; 50 mM Tris acetate pH 7.5, 100 mM Na glutamate, 50 mM NaCl, 10 mM Mg acetate, 0.5 mM TCEP, 0.01% Tween 20, 0.1 mg/ml BSA, 25 °C; 5 nM DNA, 0-75 nM TFAM; conditions: protein: recombinant; tags: N-terminal 6xHis, TEV-cleaved; label: fluorescein (FITC) at 3' end of template strand; blunt
TFAM [5] = target: T1, TFAM; assay: smFRET; bending equilibrium K(F/P) 0.59 ± 0.24; 50 mM Tris acetate pH 7.5, 100 mM Na glutamate, 50 mM NaCl, 10 mM Mg acetate, 0.5 mM TCEP, 0.01% Tween 20, 0.1 mg/ml BSA, 25 °C; 5 nM DNA, 0-75 nM TFAM; conditions: protein: recombinant; tags: N-terminal 6xHis, TEV-cleaved; label: Atto565 at 5' non-template, Atto647N at 5' template; blunt

Binder	Kd [3]	Kd (TFAM [4])	also measured
LSP, Atto565/Atto647N (dsDNA, biotin-2xPEG18 at 3' end of template) DNA 1: TGTGTTAGTTGGGGGGTGACTGTTAAAAGT DNA 2: ACTTTTAACAGTCACCCCCCAACTAACACA	–	–	binding result (TFAM [1]): binds
HSP, Atto565/Atto647N (dsDNA, biotin-2xPEG18 at 3' end of template) DNA 1: CACACCGCTGCTAACCCCATACCCCGAACC DNA 2: GGTTCGGGGTATGGGGTTAGCAGCGGTGTG	–	–	binding result (TFAM [2]): binds
NS (non-specific), fluorescein (dsDNA) DNA 1: TAGCAGGAGCAGGAACAGGATGAACAAGCA DNA 2: TGCTTGTTCATCCTGTTCCTGCTCCTGCTA	~100 nM	~44 nM	–
NS, Atto565/Atto647N (dsDNA, biotin-2xPEG18 at 3' end of template) DNA 1: TAGCAGGAGCAGGAACAGGATGAACAAGCA DNA 2: TGCTTGTTCATCCTGTTCCTGCTCCTGCTA	–	–	binding result (TFAM [5]): binds
LSP (-41 to -12), fluorescein (dsDNA) DNA 1: TGTGTTAGTTGGGGGGTGACTGTTAAAAGT DNA 2: ACTTTTAACAGTCACCCCCCAACTAACACA	–	~9 nM	–
HSP (-41 to -12), fluorescein (dsDNA) DNA 1: CACACCGCTGCTAACCCCATACCCCGAACC DNA 2: GGTTCGGGGTATGGGGTTAGCAGCGGTGTG	~100 nM	~43 nM	–
